Laboratory results: paper PMC3235114, “Characterization of the Partitioning System of Myxococcus Plasmid pMF1”

How the values were obtained:
[1] = biological target: T1, ParB (ORF23, pMF1.23 product), His-tagged (Myxococcus fulvus 124B02 plasmid pMF1, UniProt B0YR32 12-86); assay: EMSA; unlabeled ItB competes; EMSA: 12 mM HEPES, 4 mM Tris-HCl pH 8.0, 60 mM KCl, 5 mM MgCl2, 0.1 mM EDTA, 1 ug poly(dI-dC), 2% glycerol, 12 pmol probe, 30 min 30 C; footprint: HEMG (50 mM EDTA as printed, 50 mM KCl, 12.5 mM HEPES pH 7.6, 6 mM MgCl2, 5% glycerol), 20 mM HEPES pH 7.6, 5 ug poly(dI-dC), 30 min 30 C; conditions: protein: recombinant; tags: N-terminal His6 (pET-15b); label: 3' biotin; blunt
T1 sequence: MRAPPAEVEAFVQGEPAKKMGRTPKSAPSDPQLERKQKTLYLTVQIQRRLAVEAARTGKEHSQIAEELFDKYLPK

[2] = biological target: T2, ParC (ORF21, pMF1.21 product) (Myxococcus fulvus 124B02 plasmid pMF1, UniProt B0YR30 1-87); assay: EMSA; data not shown; EMSA: 12 mM HEPES, 4 mM Tris-HCl pH 8.0, 60 mM KCl, 5 mM MgCl2, 0.1 mM EDTA, 1 ug poly(dI-dC), 2% glycerol, 12 pmol probe, 30 min 30 C; footprint: HEMG (50 mM EDTA as printed, 50 mM KCl, 12.5 mM HEPES pH 7.6, 6 mM MgCl2, 5% glycerol), 20 mM HEPES pH 7.6, 5 ug poly(dI-dC), 30 min 30 C; conditions: protein: recombinant, tags: His6 (pET-15b), label: 3' biotin
T2 sequence: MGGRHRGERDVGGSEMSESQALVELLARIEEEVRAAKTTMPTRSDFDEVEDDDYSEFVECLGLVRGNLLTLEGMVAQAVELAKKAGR

[3] = biological target: T1, ParB (ORF23, pMF1.23 product), …; assay: EMSA; up to 1000 ng protein; EMSA: 12 mM HEPES, 4 mM Tris-HCl pH 8.0, 60 mM KCl, 5 mM MgCl2, 0.1 mM EDTA, 1 ug poly(dI-dC), 2% glycerol, 12 pmol probe, 30 min 30 C; footprint: HEMG (50 mM EDTA as printed, 50 mM KCl, 12.5 mM HEPES pH 7.6, 6 mM MgCl2, 5% glycerol), 20 mM HEPES pH 7.6, 5 ug poly(dI-dC), 30 min 30 C; conditions: protein: recombinant; tags: N-terminal His6 (pET-15b); label: 3' biotin
[4] = biological target: T1, ParB (ORF23, pMF1.23 product), …; assay: EMSA; EMSA: 12 mM HEPES, 4 mM Tris-HCl pH 8.0, 60 mM KCl, 5 mM MgCl2, 0.1 mM EDTA, 1 ug poly(dI-dC), 2% glycerol, 12 pmol probe, 30 min 30 C; footprint: HEMG (50 mM EDTA as printed, 50 mM KCl, 12.5 mM HEPES pH 7.6, 6 mM MgCl2, 5% glycerol), 20 mM HEPES pH 7.6, 5 ug poly(dI-dC), 30 min 30 C; conditions: protein: recombinant; tags: N-terminal His6 (pET-15b); label: 3' biotin; blunt
[5] = biological target: T3, ParB (ORF23, pMF1.23 product), His-tag free (Myxococcus fulvus 124B02 plasmid pMF1, UniProt B0YR32 12-86); assay: EMSA; similar affinity to His-tagged protein; EMSA: 12 mM HEPES, 4 mM Tris-HCl pH 8.0, 60 mM KCl, 5 mM MgCl2, 0.1 mM EDTA, 1 ug poly(dI-dC), 2% glycerol, 12 pmol probe, 30 min 30 C; footprint: HEMG (50 mM EDTA as printed, 50 mM KCl, 12.5 mM HEPES pH 7.6, 6 mM MgCl2, 5% glycerol), 20 mM HEPES pH 7.6, 5 ug poly(dI-dC), 30 min 30 C; conditions: protein: recombinant; tags: none; label: 3' biotin; blunt
T3 sequence: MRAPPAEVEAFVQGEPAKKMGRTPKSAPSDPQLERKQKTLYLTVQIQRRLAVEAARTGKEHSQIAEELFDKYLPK

[6] = biological target: T1, ParB (ORF23, pMF1.23 product), …; assay: EMSA; poly(dI-dC), 5 mM MgCl2; unlabeled ItA competes; EMSA: 12 mM HEPES, 4 mM Tris-HCl pH 8.0, 60 mM KCl, 5 mM MgCl2, 0.1 mM EDTA, 1 ug poly(dI-dC), 2% glycerol, 12 pmol probe, 30 min 30 C; footprint: HEMG (50 mM EDTA as printed, 50 mM KCl, 12.5 mM HEPES pH 7.6, 6 mM MgCl2, 5% glycerol), 20 mM HEPES pH 7.6, 5 ug poly(dI-dC), 30 min 30 C; conditions: protein: recombinant; tags: N-terminal His6 (pET-15b); label: 3' biotin; blunt

B1: ItB (dsDNA)
DNA 1: GTGATGTCTAGAGGTCTGGATGTCTAGATGTCTAGATGTCT
DNA 2: AGACATCTAGACATCTAGACATCCAGACCTCTAGACATCAC
B1: binds [1].

B2: non-iteron fragment (dsDNA)
DNA 1: CGGGCGTCACAGGGGGGAACGCGATGTTGGAGGGTCGGAAATGAGCGAGTCG
DNA 2: CGACTCGCTCATTTCCGACCCTCCAACATCGCGTTCCCCCCTGTGACGCCCG
B2: no binding [2]; no binding [3].

B3: ItE (dsDNA)
DNA 1: AAGTGTCTAGATGTCTAGATGTCT
DNA 2: AGACATCTAGACATCTAGACACTT
B3: binds [4].

B4: ItC (dsDNA)
DNA 1: AGACATCTGGAAGTCTGGATGTC
DNA 2: GACATCCAGACTTCCAGATGTCT
B4: binds [4].

B5: ItA (dsDNA)
DNA 1: GGAAGTCTGGAAGTCTAGATGTCTAGATGTTTGAATGTTTGGAGTGGG
DNA 2: CCCACTCCAAACATTCAAACATCTAGACATCTAGACTTCCAGACTTCC
B5: no binding ([2]; blunt); binds [5]; binds [6].

B6: ItF (dsDNA)
DNA 1: AGAGGTCTAGGTGTCTGGAAGTCTGGAGGTCTGGATGTC
DNA 2: GACATCCAGACCTCCAGACTTCCAGACACCTAGACCTCT
B6: binds [4].

B7: ItD (dsDNA)
DNA 1: AGAAGTCCAGACATCTGGACATTCAGAAGTCTAGACATCTGGATGTCCAGATGGGG
DNA 2: CCCCATCTGGACATCCAGATGTCTAGACTTCTGAATGTCCAGATGTCTGGACTTCT
B7: binds [4].
